Experimental findings from PMC9127447, “The Lipid-Binding Defective Dynamin 2 Mutant in Charcot-Marie-Tooth Disease Impairs Proper Actin Bundling and Actin Organization in Glomerular Podocytes” (Frontiers in Cell and Developmental Biology, 2022) are described below.

Substitutions are numbered along the chain they refer to. In names and notes the source's numbering stands.

Data set [1] deals with Non-muscle actin (actin filaments) (UniProt P60709 1-375). Nature of the data set: cell-based or functional assay.
Data set [2] concerns the molecule itself. Nature of the data set: cell-based or functional assay.

B1: His-tagged rat dynamin 2-WT (enzyme, UniProt P39052 1-870, looked up)
chain: MGNRGMEELIPLVNKLQDAFSSIGQSCHLDLPQIAVVGGQSAGKSSVLENFVGRDFLPRGSGIVTRRPLILQLIFSKTEYAEFLHCKSKKFTDFDEVRQEIEAETDRVTGTNKGISPVPINLRVYSPHVLNLTLIDLPGITKVPVGDQPPDIEYQIKDMILQFISRESSLILAVTPANMDLANSDALKLAKEVDPQGLRTIGVITKLDLMDEGTDARDVLENKLLPLRRGYIGVVNRSQKDIEGRKDIRAALAAERKFFLSHPAYRHMADRMGTPHLQKTLNQQLTNHIRESLPTLRSKLQSQLLSLEKEVEEYKNFRPDDPTRKTKALLQMVQQFGVDFEKRIEGSGDQVDTLELSGGARINRIFHERFPFELVKMEFDEKDLRREISYAIKNIHGVRTGLFTPDLAFEAIVKKQVVKLKEPCLKCVDLVIQELISTVRQCTSKLSSYPRLREETERIVTTYIREREGRTKDQILLLIDIEQSYINTNHEDFIGFANAQQRSTQLNKKRAIPNQGEILVIRRGWLTINNISLMKGGSKEYWFVLTAESLSWYKDEEEKEKKYMLPLDNLKIRDVEKGFMSNKHVFAIFNTEQRNVYKDLRQIELACDSQEDVDSWKASFLRAGVYPEKDQAENEDGAQENTFSMDPQLERQVETIRNLVDSYVAIINKSIRDLMPKTIMHLMINNTKAFIHHELLAYLYSSADQSSLMEESAEQAQRRDDMLRMYHALKEALNIIGDISTSTVSTPVPPPVDDTWLQNTSSHSPTPQRRPVSSVHPPGRPPAVRGPTPGPPLIPMPVGATSSFSAPPIPSRPGPQNVFANNDPFSAPPQIPSRPARIPPGIPPGVPSRRAPAAPSRPTIIRPAEPSLLD
On to B1, for which, in data set [1], the “release of free phosphate (GTPase activity) by dynamin 2 (1.5 uM) with actin filaments (1 uM), 100 mM KCl, relative to that without actin” value stood at 6 fold.

B2: His-tagged rat dynamin 2-K562E (enzyme, UniProt P39052 1-870, looked up)
chain: B1 chain with K562E
In the case of B2, in data set [1], the “release of free phosphate (GTPase activity) by dynamin 2 (1.5 uM) with actin filaments (1 uM), 100 mM KCl, relative to that without actin” value is 4 fold. In addition, the “GTPase activity under low ionic strength buffer, relative to dynamin 2-WT” value in data set [2] was ~0.33 of dynamin 2-WT.
